Data reported in the supplement of paper PMC12764529.
± gives the half width of the 95% confidence interval.

assay: folding stability dG unfold from trypsin proteolysis; higher = more stable
Summary of the method: (§1)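 Designed mini-proteins (under 80 residues, no cysteine) in a PA-tagged cDNA display construct were digested with trypsin and chymotrypsin. Each protease was used at 11 concentrations (threefold dilutions) plus a no-protease condition, followed by sequencing. K50 was inferred by Bayesian fitting of sequencing counts, and unfolding free energy was derived against a sequence-predicted unfolded-state K50 and a shared folded-state K50, per protease or combined. Only designs with AlphaFold2 dimer inter-PAE above 15 were kept.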

Sequence	folding stability dG unfold
SAMKKTETRVLEIRIGDYLAKIFLTEYEDGRVETLIEVYGPDPAVVEEVKDFLEKLDPDLEITEIVVLDSAG [r14_611_TrMRF]	3.13 ± 0.072 kcal/mol
SAGGSSMPLEVTEVKKIGDKIVITLRVPPSVGPLSLGLTIELKSKPVTITSTFDPSTTTATIEVGLSAGGSA [r2_261_JUSTAS]	2.88 ± 0.1 kcal/mol
SAGKETVKLVVVNKETNKVVEVTFNKDGEIVSVKVFEVKPAPPPPPVELSEEQLVKTKDGKWRSLEELKSAG [r5_685_TrROS_Hall]	-0.369 ± 0.13 kcal/mol
SAGGSAGGAELKPVGNDPETGKTAVILLKKPDPTGLVLALEGLSPEELKKLAEIPGYEAVAVLASAGGSAGG [r6_185_TrMRF]	0.996 ± 0.037 kcal/mol
SAGGSAGGSAMTPEEIKKLFPNAKMKPFKGNGKTVIVIELPSGEKIEIVFDDGKPRIIVYKGSAGGSAGGSA [r18_13_TrMRF]	1.36 ± 0.042 kcal/mol
SAGMTLVAVNRETGEVNVIELDPEDPELVTVTYPNGEKETFPLAEIAERLGLPVSLLLNDYDIERIYGSSAG [r5_156_TrMRF]	1.95 ± 0.086 kcal/mol
SAGGSAGGSAGGKLKPGQKVLVIELKVTKVKTKKDGKKEFEFEITRIEIVEVPEGAKILSAGGSAGGSAGGS [r10_826_TrROS_Hall]	1.78 ± 0.051 kcal/mol
SMEEVKEALRKAGIDVPVTKIETEKLPDGSYKVTLTVGDKKVLTVYVPPEPPEPPVFYRTPPNGSREPVLSA [r9_442_JUSTAS]	0.291 ± 0.12 kcal/mol
SAGGKYKIVEITIKVEPGQSPEEIAAEIAKKLAPPGEKVKVKVEKKDGYLRIYIINEETGEVVEEFELSAGG [r13_724_TrROS_Hall]	1.66 ± 0.051 kcal/mol
SAGGSAKKIKIFSLEELRERFPDLSEEELKKRAEELAKELAERLKEEGKPVEVEIVEVKLPEEEKKSAGGSA [r15_287_TrROS_Hall]	0.382 ± 0.13 kcal/mol
SAEEPEVVRLEIRITVVERDEDGRLREREVTLEVEVLPDGRVVIRVDGRVFVIDLETGELVEVLEDVEPSAG [r14_821_TrROS_Hall]	3.77 ± 0.099 kcal/mol
SMIKPGDTVTIVLKVKPEDLEKIREAVEELLRELFPDVEVESVEVNPEEENYVVITVRVDGKEITLVIERSA [r9_1079_TrROS_Hall]	2.78 ± 0.048 kcal/mol
SAGGSAGGSAGGSMKITKTLIPETGLYKVTITLPGGKPVEIEAPPSSSLEEVKKKAEKLSAGGSAGGSAGGS [r4_205_JUSTAS]	-0.116 ± 0.12 kcal/mol
SAGGSAKVKIEVSIEVSEDGTITITVRITNENGEELTVTITIKLPPAPTVVYDSEEERKKALEALASAGGSA [r15_1018_TrROS_Hall]	2.9 ± 0.14 kcal/mol
MKIRVEITVRNPDGEELKIEIVLSLEELEELRKEGKPLTLEELKALIEERARKLAEELDLEVEIKIVEIEPS [r1_174_TrROS_Hall]	4.11 ± 0.35 kcal/mol
SAGGSAGGSPMPVIEEVPLNPVEEKPDPSSNTLTVKYPDGTYRILTKNPDGSYSFKVLPSSSISAGGSAGGS [r12_351_JUSTAS]	1.67 ± 0.034 kcal/mol
SAGGSAMEKLKEIPGIERIEVKEDGKIIIHVKMSEEERKKLAEALRKEGKVKIEVVPVEVEEEEEESAGGSA [r15_554_TrROS_Hall]	2.83 ± 0.12 kcal/mol
SAGGSAGGSAGGENNWMIFIEIKIEWEIKPTPDGKWKWEPEIEIKSIRIMPPNSPAAKDLSAGGSAGGSAGG [r7_889_TrROS]	2.95 ± 0.18 kcal/mol
SAGGSAGGSDLPIKIKMEPIPPGMPPGQVYRMEIEIPNGWVIRYSFYFTGGKLEFEPMEIKPVSAGGSAGGS [r12_1049_TrROS]	2.22 ± 0.19 kcal/mol
SAGGSKPKTVEITLEVDGKKVKITVTEKDGKLTVTITFPDGTKLTIELPENMSIEEALKKALEALKSAGGSA [r2_92_TrROS_Hall]	3.28 ± 0.13 kcal/mol
SMKLIGYDPVTGKPVTLTFDPETKTVTVTHPNGEKITAPAESITFDPETGTVTITLPTKTVTFYVPPEANSA [r9_325_TrMRF]	3.89 ± 0.27 kcal/mol

Sequence	folding stability dG unfold
SAGGSAGGSEKVIVVPSEEALKALEDAGIEVKKIEVFTETVTYYYPPGFPPVTETRTYLLVEVSAGGSAGGS [r12_78_TrROS_Hall]	1.45 ± 0.056 kcal/mol
SGMTVTPVTHPNGQTLTLTFDPETGTVTVNRSPAISLEEVKAALEALIPSDRSVTVSTLPDGTAAVTLTASA [r9_933_JUSTAS]	1.36 ± 0.04 kcal/mol
SAGGSIELPLEEGSTAEVELELRVPFYRLDANGRPVAPEERTLRIRARFTRLPDGRVLVEVEVEVESAGGSA [r2_154_TrMRF]	4.46 ± 0.17 kcal/mol
SAGGSAAPVSRVVELEFVLPPELVAEAVDALRKLPGVKASFELAEVLPDGYVRVRVTIEVPDDVDLSAGGSA [r15_441_TrMRF]	3.46 ± 0.11 kcal/mol
SAGGSKEKFLTIEHPDYVIKAYVDYPKEGKLRVRIEIYDKNGKLLKTIEVEAYSPEEVLEFLEKAASAGGSA [r2_82_TrMRF]	2.48 ± 0.1 kcal/mol
SAGDRIRITMPFDDLRKIMDEIGYPPEQMTAEEFADRLAEHFPGVKVDIEMDREDGYFTVEIELPPGMKSAG [r5_264_TrROS]	1.43 ± 0.062 kcal/mol
SAGGSAKIEIERIEPRPVLVPRPDGSLVPVPEVEVELRIEGDPEKMEEEERKKIEALAEEIAKELGSAGGSA [r2_40_TrMRF]	-0.508 ± 0.16 kcal/mol
SAGGEEIEAEVVEVRTFTLENGFEVTTTLIRVDGKLILITSVKKTKNGKWEVVEVKELPLEELSPEELSAGG [r13_494_TrROS_Hall]	3.35 ± 0.14 kcal/mol
SAGGTAEEIVEALKEAGIPVLSIEPNSDGTYTITVGGPDGTPFTIEISSANPADLAALKEAIPEEVSSAGGS [r16_821_TrMRF]	3.35 ± 0.22 kcal/mol
SAGGSAGGSAGWRTHSHWVPPDNIPELAERIQDWGVKVEIERDPKDGWYRVTITIPDDFISAGGSAGGSAGG [r11_1043_TrROS]	0.793 ± 0.058 kcal/mol
SPLVLNPEGRTLTITLTVTVDPDVDRQVVPVLVVDEGAPRTFTFEVPKGLAGPVTFTLEIDLPPGAYVEVSA [r9_973_TrMRF]	2.05 ± 0.028 kcal/mol
SAEVVIVIEPGMTEEQVRARLKAALEEALRKGKKVKKIVVKSEEAARRIRDLLKELGVPEEDVEVVLLPSAG [r14_589_TrROS_Hall]	4.92 ± 0.51 kcal/mol
SAGMKPSPEGKTIITIDTSTGKVDVVFPDGKEFTLPFDSSSIEEIIKTIKEKLGYPPEVPFNIDEIEIASAG [r5_923_JUSTAS]	2.41 ± 0.1 kcal/mol
SAGTLVLVIEVPLEDVTPEQAEEIAEEAARFLREAGLPEGIEVEDVRVERLPDGRLLVLLPMRILEDESAGG [r19_87_TrMRF]	1.97 ± 0.056 kcal/mol
SAGGSAGGSMRVEITEVKEVRGEGGEPRYLVTVRITVPDGKEETFVYEFKTPEELEKLEVELPSAGGSAGGS [r20_130_JUSTAS]	2.55 ± 0.062 kcal/mol
SAGGSAGGSAGKMKIRVKIKRKDGKTLVIEGMSLEEIKELAEKEGFEIEKVEVVEVEPEESAGGSAGGSAGG [r11_283_TrROS_Hall]	3.23 ± 0.26 kcal/mol
SAGGSAGGITIRDPDNGIEVKILKITPNHMIIQAEFPNGRNYMIEMPPDSLKPGDEIPMTVHPVSAGGSAGG [r6_152_TrROS]	-0.008 ± 0.17 kcal/mol
SAGGMPPENIKEITEVERNPDGMKEITIEMEDPELAKQGNPEQVDQMAEWLQDEFPDRGIPVTIEPGPSAGG [r13_243_TrROS]	0.514 ± 0.081 kcal/mol
SAGGGMTVTIEVEGSIKKSIKGISYKDDKEKKESNKNKYLKKTITVTLTAEDDPNAAAAAIAALGLGSAGGS [r16_467_JUSTAS]	0.144 ± 0.23 kcal/mol
SAGKLKPGDPVKIKIEIERDPGNGMVRVTYKIEFKDGMYVTMIIPPNGPIHVEIFNPDDGKEREETIPLSAG [r5_55_TrROS]	2.15 ± 0.085 kcal/mol
SAGGSAGGSAGELSLEEIKKLAPDETAVVKLPPSPETIVITVSTNPNGTLKIEIKRYPPGSAGGSAGGSAGG [r11_13_JUSTAS]	0.566 ± 0.037 kcal/mol

assay: folding stability dG unfold from chymotrypsin proteolysis; higher = more stable
Summary of the method: as §1

Sequence	folding stability dG unfold
SAMKKTETRVLEIRIGDYLAKIFLTEYEDGRVETLIEVYGPDPAVVEEVKDFLEKLDPDLEITEIVVLDSAG [r14_611_TrMRF]	2.23 ± 0.032 kcal/mol
SAGGSSMPLEVTEVKKIGDKIVITLRVPPSVGPLSLGLTIELKSKPVTITSTFDPSTTTATIEVGLSAGGSA [r2_261_JUSTAS]	3.43 ± 0.18 kcal/mol
SAGKETVKLVVVNKETNKVVEVTFNKDGEIVSVKVFEVKPAPPPPPVELSEEQLVKTKDGKWRSLEELKSAG [r5_685_TrROS_Hall]	1.19 ± 0.075 kcal/mol
SAGGSAGGAELKPVGNDPETGKTAVILLKKPDPTGLVLALEGLSPEELKKLAEIPGYEAVAVLASAGGSAGG [r6_185_TrMRF]	0.213 ± 0.23 kcal/mol
SAGGSAGGSAMTPEEIKKLFPNAKMKPFKGNGKTVIVIELPSGEKIEIVFDDGKPRIIVYKGSAGGSAGGSA [r18_13_TrMRF]	1.3 ± 0.091 kcal/mol
SAGMTLVAVNRETGEVNVIELDPEDPELVTVTYPNGEKETFPLAEIAERLGLPVSLLLNDYDIERIYGSSAG [r5_156_TrMRF]	1.38 ± 0.057 kcal/mol
SAGGSAGGSAGGKLKPGQKVLVIELKVTKVKTKKDGKKEFEFEITRIEIVEVPEGAKILSAGGSAGGSAGGS [r10_826_TrROS_Hall]	1.01 ± 0.051 kcal/mol
SMEEVKEALRKAGIDVPVTKIETEKLPDGSYKVTLTVGDKKVLTVYVPPEPPEPPVFYRTPPNGSREPVLSA [r9_442_JUSTAS]	0.528 ± 0.27 kcal/mol
SAGGKYKIVEITIKVEPGQSPEEIAAEIAKKLAPPGEKVKVKVEKKDGYLRIYIINEETGEVVEEFELSAGG [r13_724_TrROS_Hall]	1.91 ± 0.06 kcal/mol
SAGGSAKKIKIFSLEELRERFPDLSEEELKKRAEELAKELAERLKEEGKPVEVEIVEVKLPEEEKKSAGGSA [r15_287_TrROS_Hall]	2.107 ± 0.015 kcal/mol
SAEEPEVVRLEIRITVVERDEDGRLREREVTLEVEVLPDGRVVIRVDGRVFVIDLETGELVEVLEDVEPSAG [r14_821_TrROS_Hall]	4.14 ± 0.081 kcal/mol
SMIKPGDTVTIVLKVKPEDLEKIREAVEELLRELFPDVEVESVEVNPEEENYVVITVRVDGKEITLVIERSA [r9_1079_TrROS_Hall]	2.262 ± 0.021 kcal/mol
SAGGSAGGSAGGSMKITKTLIPETGLYKVTITLPGGKPVEIEAPPSSSLEEVKKKAEKLSAGGSAGGSAGGS [r4_205_JUSTAS]	-0.169 ± 0.26 kcal/mol
SAGGSAKVKIEVSIEVSEDGTITITVRITNENGEELTVTITIKLPPAPTVVYDSEEERKKALEALASAGGSA [r15_1018_TrROS_Hall]	2.2 ± 0.19 kcal/mol
MKIRVEITVRNPDGEELKIEIVLSLEELEELRKEGKPLTLEELKALIEERARKLAEELDLEVEIKIVEIEPS [r1_174_TrROS_Hall]	5.06 ± 0.89 kcal/mol
SAGGSAGGSPMPVIEEVPLNPVEEKPDPSSNTLTVKYPDGTYRILTKNPDGSYSFKVLPSSSISAGGSAGGS [r12_351_JUSTAS]	1.56 ± 0.098 kcal/mol
SAGGSAMEKLKEIPGIERIEVKEDGKIIIHVKMSEEERKKLAEALRKEGKVKIEVVPVEVEEEEEESAGGSA [r15_554_TrROS_Hall]	2.03 ± 0.072 kcal/mol
SAGGSAGGSAGGENNWMIFIEIKIEWEIKPTPDGKWKWEPEIEIKSIRIMPPNSPAAKDLSAGGSAGGSAGG [r7_889_TrROS]	2.51 ± 0.1 kcal/mol
SAGGSAGGSDLPIKIKMEPIPPGMPPGQVYRMEIEIPNGWVIRYSFYFTGGKLEFEPMEIKPVSAGGSAGGS [r12_1049_TrROS]	3.58 ± 0.08 kcal/mol
SAGGSKPKTVEITLEVDGKKVKITVTEKDGKLTVTITFPDGTKLTIELPENMSIEEALKKALEALKSAGGSA [r2_92_TrROS_Hall]	2.4 ± 0.062 kcal/mol
SMKLIGYDPVTGKPVTLTFDPETKTVTVTHPNGEKITAPAESITFDPETGTVTITLPTKTVTFYVPPEANSA [r9_325_TrMRF]	4.93 ± 0.12 kcal/mol
